Reference: the Human Domainome abundance scans (Beltran et al. 2025)
± gives the uncertainty stated by the source.

B1: Intersectin-1, residues 909 to 971; numbered along this chain, Q15811 (parent)
chain: QGEKVEGLQAQALYPWRAKKDNHLNFNKNDVITVLEQQDMWWFGEVQGQKGWFPKSYVKLISG

Variants of: B1
Experiment: abundance fitness (aPCA) (normalised: wild type 0, dead -1); higher = more abundant; growth selection in yeast, the domain comes from the species named
Settings: Homo sapiens

QGEKVEGLQAQALYPWRAKKDNHLNFNKNDVITVLEQQDMWWFGEVQGQKGWFPQSYVKLISG [K55Q] and QGEKVEGLQAQALYPWRAKKDNHLNFNKNDVITVLEQQDMWWFGEVQGQKGWFPGSYVKLISG [K55G] are within error of each other in abundance fitness: -0.005 ± 0.34 for the first, -0.165 ± 0.24 for the second.

QGEKVEGLQAQALYPWRAKKDNHLNFNKNDVITVLEQQDMWWFGEVQGQKGWFPCSYVKLISG [K55C] and QGEKVEGLQAQALYPWRAKKDNHLNFNKNDVITVLEQQDMWWFGEVQGQKGWFPESYVKLISG [K55E] are within error of each other in abundance fitness: -0.16 ± 0.21 for the first, -0.396 ± 0.34 for the second.

QGEKVEGLQAQALYPWRAKKDNHLNFNKNDVITVLEQQDMWWFGEVQGQKGWFPNSYVKLISG [K55N] and QGEKVEGLQAQALYPWRAKKDNHLNFNKNDVITVLEQQDMWWFGEVQGQKGWFPLSYVKLISG [K55L] are within error of each other in abundance fitness: -0.054 ± 0.26 for the first, -0.24 ± 0.36 for the second.

Compared with QGEKVEGLQAQALYPWRAKKDNHLNFNKNDVITVLEQQDMWWFGEVQGQKGWFPRSYVKLISG [K55R], QGEKVEGLQAQALYPWRAKKDNHLNFNKNDVITVLEQQDMWWFGEVQGQKGWFRKSYVKLISG [P54R] is lower in abundance fitness: 0.018 ± 0.3 for the first, -0.714 ± 0.12 for the second.

QGEKVEGLQAQALYPWRAKKDNHLNFNKNDVITVLEQQDMWWFGEVQGQKGWFKKSYVKLISG [P54K] and QGEKVEGLQAQALYPWRAKKDNHLNFNKNDVITVLEQQDMWWFGEVQGQKGWFMKSYVKLISG [P54M] are within error of each other in abundance fitness: -0.354 ± 0.22 for the first, -0.25 ± 0.11 for the second.

QGEKVEGLQAQALYPWRAKKDNHLNFNKNDVITVLEQQDMWWFGEVQGQKGWFVKSYVKLISG [P54V] and QGEKVEGLQAQALYPWRAKKDNHLNFNKNDVITVLEQQDMWWFGEVQGQKGWFWKSYVKLISG [P54W] are within error of each other in abundance fitness: -0.499 ± 0.12 for the first, -0.437 ± 0.18 for the second.

QGEKVEGLQAQALYPWRAKKDNHLNFNKNDVITVLEQQDMWWFGEVQGQKGWFCKSYVKLISG [P54C] and QGEKVEGLQAQALYPWRAKKDNHLNFNKNDVITVLEQQDMWWFGEVQGQKGWFEKSYVKLISG [P54E] are within error of each other in abundance fitness: -0.765 ± 0.34 for the first, -0.474 ± 0.14 for the second.

QGEKVEGLQAQALYPWRAKKDNHLNFNKNDVITVLEQQDMWWFGEVQGQKGWFGKSYVKLISG [P54G] and QGEKVEGLQAQALYPWRAKKDNHLNFNKNDVITVLEQQDMWWFGEVQGQKGWFQKSYVKLISG [P54Q] are within error of each other in abundance fitness: -1.18 ± 0.41 for the first, -0.688 ± 0.3 for the second.

Compared with QGEKVEGLQAQALYPWRAKKDNHLNFNKNDVITVLEQQDMWWFGEVQGQKGWFDKSYVKLISG [P54D], QGEKVEGLQAQALYPWRAKKDNHLNFNKNDVITVLEQQDMWWFGEVQGQKGWFLKSYVKLISG [P54L] is higher in abundance fitness: -0.721 ± 0.27 for the first, -0.215 ± 0.11 for the second.

QGEKVEGLQAQALYPWRAKKDNHLNFNKNDVITVLEQQDMWWFGEVQGQKGWFFKSYVKLISG [P54F] and QGEKVEGLQAQALYPWRAKKDNHLNFNKNDVITVLEQQDMWWFGEVQGQKGWFSKSYVKLISG [P54S] are within error of each other in abundance fitness: -0.8 ± 0.46 for the first, -0.88 ± 0.27 for the second.

QGEKVEGLQAQALYPWRAKKDNHLNFNKNDVITVLEQQDMWWFGEVQGQKGWFPKFYVKLISG [S56F] and QGEKVEGLQAQALYPWRAKKDNHLNFNKNDVITVLEQQDMWWFGEVQGQKGWFPKTYVKLISG [S56T] are within error of each other in abundance fitness: -0.239 ± 0.19 for the first, -0.016 ± 0.16 for the second.

QGEKVEGLQAQALYPWRAKKDNHLNFNKNDVITVLEQQDMWWFGEVQGQKGWFPKDYVKLISG [S56D] and QGEKVEGLQAQALYPWRAKKDNHLNFNKNDVITVLEQQDMWWFGEVQGQKGWFPKLYVKLISG [S56L] are within error of each other in abundance fitness: -0.1 ± 0.18 for the first, -0.102 ± 0.092 for the second.

QGEKVEGLQAQALYPWRAKKDNHLNFNKNDVITVLEQQDMWWFGEVQGQKGWFPKCYVKLISG [S56C] and QGEKVEGLQAQALYPWRAKKDNHLNFNKNDVITVLEQQDMWWFGEVQGQKGWFPKMYVKLISG [S56M] are within error of each other in abundance fitness: -0.204 ± 0.28 for the first, -0.238 ± 0.12 for the second.

QGEKVEGLQAQALYPWRAKKDNHLNFNKNDVITVLEQQDMWWFGEVQGQKGWFPKPYVKLISG [S56P] and QGEKVEGLQAQALYPWRAKKDNHLNFNKNDVITVLEQQDMWWFGEVQGQKGWFPKYYVKLISG [S56Y] are within error of each other in abundance fitness: -0.298 ± 0.22 for the first, -0.225 ± 0.28 for the second.

QGEKVEGLQAQALYPWRAKKDNHLNFNKNDVITVLEQQDMWWFGEVQGQKGWFPKIYVKLISG [S56I] and QGEKVEGLQAQALYPWRAKKDNHLNFNKNDVITVLEQQDMWWFGEVQGQKGWFPKEYVKLISG [S56E] are within error of each other in abundance fitness: -0.491 ± 0.26 for the first, -0.178 ± 0.18 for the second.

QGEKVEGLQAQALYPWRAKKDNHLNFNKNDVITVLEQQDMWWFGEVQGQKGWFPKVYVKLISG [S56V] and QGEKVEGLQAQALYPWRAKKDNHLNFNKNDVITVLEQQDMWWFGEVQGQKGWFPKQYVKLISG [S56Q] are the same in abundance fitness: -0.099 ± 0.081 for the first, -0.099 ± 0.2 for the second.

QGEKVEGLQAQALYPWRAKKDNHLNFNKNDVITVLEQQDMWWFGEVQGQKGWFPKKYVKLISG [S56K] and QGEKVEGLQAQALYPWRAKKDNHLNFNKNDVITVLEQQDMWWFGEVQGQKGWFPKWYVKLISG [S56W] are within error of each other in abundance fitness: -0.251 ± 0.2 for the first, -0.393 ± 0.17 for the second.

QGEKVEGLQAQALYPWRAKKDNHLNFNKNDVITVLEQQDMWWFGEVQGQKGWFPKGYVKLISG [S56G] and QGEKVEGLQAQALYPWRAKKDNHLNFNKNDVITVLEQQDMWWFGEVQGQKGWFPKAYVKLISG [S56A] are within error of each other in abundance fitness: -0.147 ± 0.068 for the first, -0.137 ± 0.13 for the second.

QGEKVEGLQAQALYPWRAKKDNHLNFNKNDVITVLEQQDMWWFGEVQGQKGWYPKSYVKLISG [F53Y] and QGEKVEGLQAQALYPWRAKKDNHLNFNKNDVITVLEQQDMWWFGEVQGQKGWMPKSYVKLISG [F53M] are within error of each other in abundance fitness: -0.666 ± 0.42 for the first, -0.543 ± 0.47 for the second.

QGEKVEGLQAQALYPWRAKKDNHLNFNKNDVITVLEQQDMWWFGEVQGQKGWWPKSYVKLISG [F53W] and QGEKVEGLQAQALYPWRAKKDNHLNFNKNDVITVLEQQDMWWFGEVQGQKGWVPKSYVKLISG [F53V] are within error of each other in abundance fitness: -0.798 ± 0.18 for the first, -0.677 ± 0.29 for the second.

QGEKVEGLQAQALYPWRAKKDNHLNFNKNDVITVLEQQDMWWFGEVQGQKGWQPKSYVKLISG [F53Q] and QGEKVEGLQAQALYPWRAKKDNHLNFNKNDVITVLEQQDMWWFGEVQGQKGWSPKSYVKLISG [F53S] are within error of each other in abundance fitness: -1.03 ± 0.42 for the first, -0.932 ± 0.18 for the second.

Variant QGEKVEGLQAQALYPWRAKKDNHLNFNKNDVITVLEQQDMWWFGEVQGQKGWRPKSYVKLISG [F53R] has an abundance fitness of -0.951 ± 0.23.
